Measurements from the PETadex activity labels (doi:10.1016/s0021-9258(19)85305-x).
Positions count from the first letter of the chain named.

B1: unnamed (protein)
chain: MRPPQCLLHTPSLASPLLLLLLWLLGGGVGAEGREDAELLVTVRGGRLRGIRLKTPGGPVSAFLGIPFAEPPMGPRRFLPPEPKQPWSGVVDATTFQSVCYQYVDTLYPGFEGTEMANPNRELSEDCLYLNVWTPYPRPTSPTPVLVWIYGGGFYSGASSLDVYDGRFLVQAERTVLVSMNYRVGAFGFLALPGSREAPGNVGLLDQRLALQWVQENVAAFGGDPTSVTLFGESAGAASVGMHLLSPPSRGLFHRAVLQSGAPNGPWATVGMGEARRRATQLAHLVGCPPGGTGGNDTELVACLRTRPAQVLVNHEWHVLPQESVFRFSFVPVVDGDFLSDTPEALINAGDFHGLQVLVGVVKDEGSYFLVYGAPGFSKDNESLISRAEFLAGVRVGVPQVSDLAAEAVVLHYTDWLHPEDPARLREALSDVVGDHNVVCPVAQLAGRLAAQGARVYAYVFEHRASTLSWPLWMGVPHGYEIEFIFGIPLDPSRNYTAEEKIFAQRLMRYWANFARTGDPNEPRDPKAPQWPPYTAGAQQYVSLDLRPLEVRRGLRAQACAFWNRFLPKLLSATDTLDEAERQWKAEFHRWSSYMVHWKNQFDHYSKQDRCSDL
B2: unnamed (protein)
chain: B1 chain with A117W, F369A
B3: unnamed (protein)
chain: B1 chain with A117W
B4: unnamed (protein)
chain: B1 chain with A117W, W317A
B5: unnamed (protein)
chain: B1 chain with A117W, Y368F

Substrate: p-NP-C2
Details: pH 8; 27 °C

| Protein | Km | kcat | kcat/Km |
| --- | --- | --- | --- |
| B1 | 3 mM | 3170 s⁻¹ | 1.06e+06 M⁻¹ s⁻¹ |
| B2 | 8.6 mM | 333 s⁻¹ | 38800 M⁻¹ s⁻¹ |
| B3 | 5.6 mM | 1830 s⁻¹ | 327000 M⁻¹ s⁻¹ |
| B4 | 4.6 mM | 2170 s⁻¹ | 471000 M⁻¹ s⁻¹ |
| B5 | 5.4 mM | 1600 s⁻¹ | 296000 M⁻¹ s⁻¹ |
